Experimental data taken from the nanobody polyreactivity screen of Harvey et al. (2022).

Assay: yeast display, Sf9 membrane polyspecificity reagent, FACS + sequencing; frameworks hold sequencing errors
How it was run: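 Genes from sorted yeast were amplified by colony PCR, read by MiSeq 2 × 250 sequencing and filtered on CDR length. These cells carried a synthetic nanobody library in Saccharomyces cerevisiae BJ5465 and were sorted by FACS into low and high (top ~1%) gates on anti-HA and streptavidin fluorescence. Polyreactivity is labelled according to the gate of origin.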

Sequence	polyreactivity (PSR sort gate)
QGQLVESGGGLVQAGGSLRLSCAASGRTFNYYAMGWYREAPGKEWELGAAITNRGGSTYYADSVKGRFTISRDNAKNTVYLQMNSLKPEDTAVYYSAARGKYPSASGYTYSYGYWGQGTQVTVSS	high polyreactivity
QGQLVESGGGLVQAGGSLRLSCAASGRTFTAYAMGWYRQAPRKERELVASISSGSSTYYADSVKGRFTISRDNAKYTVYLQMNSLKPEDTAVYYCAARDGYRYYKGKRMGYWGQGTQVTVSS	high polyreactivity
QGQLVESGGGLVQAGGSLRLSCAASGRTFVDYDMGWYRQAAGKERELVADINSGGSTYYADSVKGRFTISRDNAKNTVYLQMNSLKREDSAVYYCAADDGWGYISSYDYEYWGQGTQVTVSS	high polyreactivity
QGQLVESGGGLVQAGGSLRLSCAASGRTLYYYAMGWYRQAPGKERELVAAISGGGRTYYADSVKGRFTISRDNAKKTVDLQMNSLKPEDTAVYYCAARYRKSGLDNYWGQGTQVTVSS	high polyreactivity
QGQLVESGGGLVQAGGSLRLSCAASGRTYDYNAMGWYRQAPWKEWELVAAISSGGSITHYADSVKGRFTISRDNAKNTVYFQMYSLKPEDTAVYYCNAAHLAHRFIGYTRWNYYYWGQGTQVTVTS	high polyreactivity
QGQLVESGGGLVQAGGSLRLSCAASGSIFGNAMGWYIQAPGKEREFVAAISSSGSSTYYADSVKGRFTISRDNAKNTVYLQMNSLKPEDTAVYYCAARPPRVSYEYWGQGTQVTVSS	high polyreactivity
QGQLVESGGGLVQAGGSLRLSCAASGSIFYYNDMGWYRQAPGKEWELVATITNGGGTNYADSVKGRFTISRDNAKYTVYLQMNSLKPEDTAVYYCAADLWPTVTASGDLIVKFDYWGQGTQVTVSS	low polyreactivity
QGQLVESGGGLVQAGGSLRLSCAASGSISLYAMGWYRQAPGKERELVAAITKSGGSTYYADSVKGRFTISRDNAKNTVYLQMHSLKPEDTAVYYCNRGGGERKYNYWGQGTQVTVSS	high polyreactivity
QGQLVESGGGLVQAGGSLRLSCAASGSTFDNYAMGWYRQAPGKERELVAAISSSSSRTYYADSVKGRFTISRDNAKNTVYLQMNSLKPADTAVYYCAKRRSIGYYYWGQGTQVTVSS	high polyreactivity
QGQLVESGGGLVQAGGSLRLSCAASGSTFTIYVMGWYRQAPGKERELVAGISWSGGSTYYTDSVKGRFTISRDNAKNTVYLQMNSLKPEDTAVYYCNADAQWSVWSYIIDYDYWGQGTQVTVPS	low polyreactivity
QGQLVESGGGLVQAGGSLRLSCAASGSTFYIYAMGWYRQAPGKERELVARISGSGGSTYYADSVKGRFTISRDNAKNTVYLQMNSLKPEDTAVYYCAADDIYKYYQYYAFPYYRYDYWGQGTQVTVSS	low polyreactivity
QGQLVESGGGLVQAGGSLRLSSAASGRTFPSYAMGWYRQAPGKERELVAAITVSGGNTYYADSVKGRFTISRDNAKNTVYLQMNSLKAEDTAVYYCNTASYVSWYVHYYYWGLGTQVTVSS	low polyreactivity
QGQLVESGGGLVQAGGSLRLSSAASGSIFFQNVMGWYRQAPGKERELVAAFSSSGDSTYYADSVKGRFTISRDNAKNTVYLQMISLKPEDTAVYYCAAEPEYVSGPYDYWGQGTQVTVSS	low polyreactivity
QGQLVESGGGLVQAGGSLRLTCAASGLTFRRYTMGSYRQAPGNERELVAPISGSGGSTYYADSVKGRFTISRDSAKNTVYFQMNSLKPEDTAVSYCNAPYLHYVIVFTDYSQRYDYWGQGTQVTVSS	high polyreactivity
QGQLVESGGGLVQEGGSLRLSCAASGRIFQNYAMGWYRQAPGKERELVATIDIGGSTKYADSVKGRFTISRDNAKNTVYLQMNSLKPEDTAVYYCNVPAFFYGYYRFDYWGQGTQVTVSS	high polyreactivity
QGQLVESRGGLVQAGGSLRLSCAASGFNLAYYAMGWYRQAPGKERELVAAISIGSSTDYADSVKGRFTISRDNAKNTVYLQMNSLKPEDTAVFYCAKRGPQVWTFDYDSWGQGTQVTVSS	low polyreactivity
QGQLVESWGGLVQAGGSLRLSCAATRRTFLYYVMGWYRQAPGKETELVAAITNRGGSTYYADSVKGRFTISRDNAKNNVYVLMKSLKQEDTAVYYSNAPYGVYWSSTYYFWGQGTQVTVSS	high polyreactivity
QGQLVQSGVGLVQAGGILRLSCASSGITFASYAMGWYRPAPGKEMELVATITTGGTNTYYADSVKARFTISRDNAKNTVYLQMNSLKPEDTAVYSSAADSTQYVLSGNYDYWGQGTQVTVSS	low polyreactivity
QGQLVVSGGGLVQAGGSLRLSCAASGRISSSYAMGWYRQAPGKEREFVAAIRSSGGSTYYADSVKGRFTISRDYAKNTVYLQMISLKPVDTAVYYCNKVGFYQSRKYYYWGQATQVTVSS	high polyreactivity
QHQIVESGGGLVQAGGSLRLSCAASGSTIYRYAMGWYRQAPGKERELVAAISSSGGSTYYADSVKGRFTISRDNAKNTVYLQMNSLKPEDTAVYYCNAADRVRRFDYWGQGTQVTVSS	low polyreactivity
QIHLVESGGGLVQAGGSLRLSCAASGGIFYINAMGWYRQAPGKEREFVAAITESSDITYYADSVKGRFTISRDNAKNTVYLQMNSLKPEDSAVYYCAAEFVRSGDDYWGQGTQVTVSS	low polyreactivity
QIQLEESGGGLVQAGGSLRLSCAASGSIFDYNTMGWYSQAPGKERELVAAISSSGGSTYYADSVKGRFTISRDNAKNSVYLQMNSLKPEDTAVYYCAAVNGYQYPPYYFNGYDYWGQGTQVTVSS	low polyreactivity

Sequence	polyreactivity (PSR sort gate)
QIQLVESGGGLVQAGGSLRLSCAASGRIFFRNAMGWYRQAPGKERELVAGITWSGGSTYYADSVKGRFTISRDNAKNTVYLQMNSLKPEDTAVYYCNAVWRYRVLCDYWGQGTQVTVSS	high polyreactivity
QIQLVESGGGLVQAGGSLRLSCAASGRTFYSYAMGWYRQAPGKERELVAAINRGASTYYADSVKGRFTISRDNAKNTVYFQMNSLKPEDTAVYYCNAQYYYIPSSTDYDYWGQGTQVTVSS	high polyreactivity
QIQLVESGGGLVQAGGSLRLSCAASGSTLPDYAMGWYRQAPGKERELVADITARGGTYYADSVKGRFTISRDNAKNTVYLQMNSLKPEDTAVYYCAARISGRWYEYWGQGTQVTVSS	high polyreactivity
QLLLQESVGGLVQAGGSLRLSCAASGSIFLFYTMGAYRQAPVKELEFVAGITLGTTTYNADSVKGRFTISRDNVKNTVYLQMNSLKPEDTAVYYCAVAVGHYTEFWYWGQGTQVTMSS	high polyreactivity
QLQHVESGGGLVQAGGSLRLSCADSGRTFQYYAMGSYRQPPGKESELVAAINTSGGRTSYADSVKGRFTISRDNAKNTVYLQMNILKPEDTAVYYCAAKPFSYVYSSYYYWGQGTQVTVSS	high polyreactivity
QLQHVESWGGLVQAGGSLRLSCAASGRTFRANDKRSYRQAPGKQSELVAAISQSGGSRYYADSVKGRFTISRDNAKNTVYLQLNSLKPEDTAVYYCNALGRISNHTLYDYWGQGTQVTVSS	low polyreactivity
QLQLEESAGGLVQAGGSLRLSCAASGSIFGPYAMGSYSQAPGKERELVAAITWSGDSTYYADSVKGRFTISRDNAKNTVYLQMNSLKPEDTAVSYCNADWGQGTQVTVSS	low polyreactivity
QLQLEESGGGLVQAGGSLSLRCAASGRIFSRYPMGWYRQAPGKERELVAAISSRAGSTYYADSVKGRFTISRDNAKNTVYLQMNSLKPEDTAVYYCNNPSYSCSSPYDHWGQGTQVTVSS	high polyreactivity
QLQLEESRGGLVQAGGSLRLSCAASGGTCFSYAMGCYRQAPGKERELVAGIRNGGSTKYADSVKGRFTISRDNAKNTVYLQMNSLNPEDTAVYYCAARYYRPYTSSWAHNYRLDYCGQGTQVTVSS	high polyreactivity
QLQLGESGGGLVQAGASLRLSFAPSGRLFDRYAMGWYRTAPATERELVASIRSGGSTNYADSVKGRFTISRDNAKNTGYLQMNSLNPEDTAVYYCAAVLRPVRFYSGYYYWGQGTQVTVSS	high polyreactivity
QLQLHESGGGLVQAGGGLRLICAASGSISSTVFMGWYRQAPGKEREPVAAIAPCTTTYYADSLKGRFTISRDNAKNTVYLQKNSLRPEDTAVYYCAVFTDNRVAFLYWGQGTQVTLSS	low polyreactivity
QLQLQESGGGLVQAGGSLRLSCAESGTIFGWDRMGRYRQAPGKERELVATIDNRGSTNYADSVKGRFTISRDNAKNTLFPQMNSLKPDDTEVYYCAVVGPTPQYHLYWGEGTQVTVSS	high polyreactivity
QLQLVESAGGLVQAGGSLRLSCAASGIIFSYYAMGWYRKAPGKERELVAAISWSGGSTYYADSVKGRFTISRDNAKNTVYLQLNSLKPEDTAVYYCAADDYLAYEYWGQGTQVTVSS	high polyreactivity
QLQLVESGGGIVQAGGRLRLSCAASGLIFYLYAMGWYRQAPGKERELVATITTGGRTNYADSVKGRFTISRDNAKISVYLQMNSLTPVDTAVYYCAATHRGQGGYYWGQGSQVTVSS	low polyreactivity
QLQLVESGGGIVQAGGSLRLSCAASGSTFLRNAMGRYRQAPGKKGSGVATISYDGYSTYYADSVKGRLTISRDNAKNSFYLQMNSLKPEDTAVYYCAASYSLTFWDKDDYWGQGSQVTVSS	low polyreactivity
QLQLVESGGGLDQAGGSLRLSCAASAFTFGYYSKGWNRQAPGKQTELVASISRSGGSTNYADSVKGRFTISRDNAKKTVYLQMNSLIPEDNAVYYCNNRVNTYRSVSRRYDYWGQGTQVTLSS	high polyreactivity
QLQLVESGGGLVQAGARLRLSCAASGSIFRFNPMGWYIPAPGKERELVAAITSSGDSTYYADSVKGRFTISRDNAKYTVYLQMNCLKPEDTAVSDCAAVRNRFIGWTVRYNWARIYNYWGQGTQVTVSS	high polyreactivity
QLQLVESGGGLVQAGCSLRLSFAASVIICWANAMGCYIHAPGKERELVASITSGGSTYYADSVKGRFTISRDNAKTTVYFQMNSLKPEDTAVYYCAADPYGWWDWHTLGTYDYWGQGTQVTVSS	low polyreactivity
QLQLVESGGGLVQAGGRLRLTCAASGRTFPYYFMGWYRPAPGKERELVAAINSGGRTNYADSVKGLFTISRDNAKNTVYLQMNSLKPEDTAVYYCTKRGHPARLGYYYWGQGTQVTVSS	low polyreactivity
QLQLVESGGGLVQAGGSLRISCAASGFTFRYYAMGWYRQAPGKERKFVAGIDFGAITNYADSVKGRFTISRDNAKNTEYLQMSSLKPEDTAVYYCAAGVYDWYAYDYWGQGTQVTVSS	high polyreactivity
QLQLVESGGGLVQAGGSLRLICAASGLIFFWYTMGWYRQAPGKDRELVAAIDSGGSTYYADSVKGRFTNSRDNAKYTVYLEMISLKPEDTAVYYCAADSFYLYIEYYYWGQGTQVTVSS	high polyreactivity
